To fix the notation:
B1: FAM46D (parent)
chain: FQEAMTHLQHKLICTRKPEEIRGG
B2: TTC32 (parent)
chain: YSAYIRRCACAASSDESPGSKCSP

Protein stability index data for 94 variants are collected here from the supplement of paper PMC10567573.
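Note: lentivirally expressed fusions sorted by FACS into six bins by GFP to DsRed ratio, PSI derived from sequencing read proportions per bin multiplied by bin number.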

The first series covers variants of B1. Description: protein stability index of a GFP-peptide fusion (GPS, HEK-293T) (PSI 1-6); higher = more stable. The note with it: c terminus: a fixed tail appended.
Consider FQEALTHLQHKLICTRKPEEIRGG [M5L], for which the protein stability index was found to be 1.64.

Take FQEARTHLQHKLICTRKPEEIRGG [M5R]: the protein stability index was 3.13.

For the variant FQEAMWHLQHKLICTRKPEEIRGG [T6W], the protein stability index is 1.49.

Take FQEAMLHLQHKLICTRKPEEIRGG [T6L]: the protein stability index is 2.04.

On to FQEAMKHLQHKLICTRKPEEIRGG [T6K], for which the protein stability index is 1.86.

On to FQEAMSHLQHKLICTRKPEEIRGG [T6S], for which the protein stability index was found to be 3.2.

On to FQEAMVHLQHKLICTRKPEEIRGG [T6V], for which the protein stability index was found to be 2.86.

Consider FQEAMEHLQHKLICTRKPEEIRGG [T6E], for which the protein stability index turned out to be 3.38.

As to FQEAMFHLQHKLICTRKPEEIRGG [T6F], the protein stability index was determined as 2.11.

Consider FQEAMTHLQHKLIITRKPEEIRGG [C14I], for which the protein stability index is 2.21.

FQEAMTHLQHKLIRTRKPEEIRGG [C14R]: the protein stability index was found to be 3.28.

With FQEAMTHLQHKLIYTRKPEEIRGG [C14Y], the protein stability index worked out at 2.45.

FQEAMTHLQHKLIGTRKPEEIRGG [C14G]: the protein stability index was found to be 2.63.

On to FQEAMTHLQHKLIETRKPEEIRGG [C14E], for which the protein stability index was determined as 3.36.

As for FQEAMTHLQHKLIQTRKPEEIRGG [C14Q], the protein stability index is 2.51.

On to FQEAMTHLQHKLIHTRKPEEIRGG [C14H], for which the protein stability index came out at 2.82.

For the variant FQEAMTHLQHKLINTRKPEEIRGG [C14N], the protein stability index was 2.71.

As for FQEAMTHLQHKLICTRKPEEQRGG [I21Q], the protein stability index was 3.05.

With FQEAMTHLQHKLICTRKPEEMRGG [I21M], the protein stability index came out at 2.9.

Take FQEAMTHLQHKLICTRKPEEYRGG [I21Y]: the protein stability index was found to be 2.21.

In the case of FQEAMTHLQHKLICTRKPEEKRGG [I21K], the protein stability index amounted to 3.72.

In the case of FQEAMTHLQHKLICTRKPEERRGG [I21R], the protein stability index was 3.93.

Take FQEAMTHWQHKLICTRKPEEIRGG [L8W]: the protein stability index was 1.89.

With FQEAMTHAQHKLICTRKPEEIRGG [L8A], the protein stability index amounted to 3.91.

For the variant FQEAMTHHQHKLICTRKPEEIRGG [L8H], the protein stability index was 3.57.

With FQEAMTHTQHKLICTRKPEEIRGG [L8T], the protein stability index was found to be 3.35.

As for FQEAMTHLQHKLICTRKPEEIRGN [G24N], the protein stability index was found to be 2.51.

For the variant FQEAMTHLQHKLICTRKPEEIRGI [G24I], the protein stability index was determined as 1.91.

For FQEAMTHLQHKLICTRKPEEIRGS [G24S], the protein stability index came to 2.9.

Regarding FQEAMTHLQHKLICTRKPEEIRGE [G24E], the protein stability index is 2.49.

For FQEAMTHLQHKLICTRKPEEIRGT [G24T], the protein stability index was found to be 2.96.

FQEAMTHLQHKLICTRKPEEIRGQ [G24Q]: the protein stability index was 2.91.

Turning to FQEAMTHLQHKLICTRKPEEIRGP [G24P], the protein stability index was 2.64.

With FQEAMTHLQHKLICTRKPHEIRGG [E19H], the protein stability index stood at 2.3.

On to FQEAMTHLQHKLICTRKPGEIRGG [E19G], for which the protein stability index was 1.83.

FQEAMTHLQHKLICTRKPQEIRGG [E19Q]: the protein stability index is 2.23.

Turning to FQEAMTHLQHKLICTRKPYEIRGG [E19Y], the protein stability index stood at 2.15.

For FQEAMTYLQHKLICTRKPEEIRGG [H7Y], the protein stability index turned out to be 3.71.

Consider FQEAMTELQHKLICTRKPEEIRGG [H7E], for which the protein stability index turned out to be 3.86.

With FQEAMTCLQHKLICTRKPEEIRGG [H7C], the protein stability index worked out at 2.85.

FQEAMTHLQHKLICTRKMEEIRGG [P18M]: the protein stability index worked out at 2.24.

As to FQEAMTHLQHKLICTRKWEEIRGG [P18W], the protein stability index turned out to be 2.35.

As for FQEAMTHLQHKLICTRKGEEIRGG [P18G], the protein stability index was determined as 2.48.

Variants of B2 are the subject of another series. The description is as above. The note with it: c terminus: a fixed tail appended.
YSKYIRRCACAASSDESPGSKCSP [A3K]: the protein stability index was found to be 2.44.

YSQYIRRCACAASSDESPGSKCSP [A3Q]: the protein stability index was 2.91.

YSIYIRRCACAASSDESPGSKCSP [A3I]: the protein stability index worked out at 1.51.

Consider YSFYIRRCACAASSDESPGSKCSP [A3F], for which the protein stability index was found to be 1.86.

Take YSDYIRRCACAASSDESPGSKCSP [A3D]: the protein stability index worked out at 2.62.

With YSMYIRRCACAASSDESPGSKCSP [A3M], the protein stability index amounted to 2.15.

Regarding YSPYIRRCACAASSDESPGSKCSP [A3P], the protein stability index worked out at 1.69.

Regarding YSNYIRRCACAASSDESPGSKCSP [A3N], the protein stability index stood at 1.54.

On to YSEYIRRCACAASSDESPGSKCSP [A3E], for which the protein stability index came out at 1.92.

On to YSGYIRRCACAASSDESPGSKCSP [A3G], for which the protein stability index was 2.

Take YSLYIRRCACAASSDESPGSKCSP [A3L]: the protein stability index was found to be 2.18.

For the variant YSCYIRRCACAASSDESPGSKCSP [A3C], the protein stability index is 2.02.

Take YSHYIRRCACAASSDESPGSKCSP [A3H]: the protein stability index came to 2.15.

Consider SSAYIRRCACAASSDESPGSKCSP [Y1S], for which the protein stability index is 2.54.

GSAYIRRCACAASSDESPGSKCSP [Y1G]: the protein stability index was 2.48.

For TSAYIRRCACAASSDESPGSKCSP [Y1T], the protein stability index is 2.52.

Take MSAYIRRCACAASSDESPGSKCSP [Y1M]: the protein stability index was 2.45.

With WSAYIRRCACAASSDESPGSKCSP [Y1W], the protein stability index stood at 2.45.

For DSAYIRRCACAASSDESPGSKCSP [Y1D], the protein stability index stood at 3.44.

As to QSAYIRRCACAASSDESPGSKCSP [Y1Q], the protein stability index is 2.56.

Regarding ISAYIRRCACAASSDESPGSKCSP [Y1I], the protein stability index is 1.72.

For the variant ASAYIRRCACAASSDESPGSKCSP [Y1A], the protein stability index was found to be 2.62.

With LSAYIRRCACAASSDESPGSKCSP [Y1L], the protein stability index amounted to 2.61.

With ESAYIRRCACAASSDESPGSKCSP [Y1E], the protein stability index was determined as 3.29.

Regarding PSAYIRRCACAASSDESPGSKCSP [Y1P], the protein stability index is 2.88.

Take FSAYIRRCACAASSDESPGSKCSP [Y1F]: the protein stability index is 2.27.

As for CSAYIRRCACAASSDESPGSKCSP [Y1C], the protein stability index came to 2.04.

As for NSAYIRRCACAASSDESPGSKCSP [Y1N], the protein stability index was determined as 2.96.

VSAYIRRCACAASSDESPGSKCSP [Y1V]: the protein stability index was 2.17.

In the case of RSAYIRRCACAASSDESPGSKCSP [Y1R], the protein stability index is 2.64.

As to KSAYIRRCACAASSDESPGSKCSP [Y1K], the protein stability index turned out to be 2.75.

With HSAYIRRCACAASSDESPGSKCSP [Y1H], the protein stability index stood at 2.65.

Consider YIAYIRRCACAASSDESPGSKCSP [S2I], for which the protein stability index is 1.58.

Take YNAYIRRCACAASSDESPGSKCSP [S2N]: the protein stability index turned out to be 2.35.

On to YEAYIRRCACAASSDESPGSKCSP [S2E], for which the protein stability index was 2.7.

With YKAYIRRCACAASSDESPGSKCSP [S2K], the protein stability index came out at 1.92.

As for YCAYIRRCACAASSDESPGSKCSP [S2C], the protein stability index came out at 2.06.

In the case of YAAYIRRCACAASSDESPGSKCSP [S2A], the protein stability index turned out to be 2.38.

On to YPAYIRRCACAASSDESPGSKCSP [S2P], for which the protein stability index turned out to be 2.59.

On to YGAYIRRCACAASSDESPGSKCSP [S2G], for which the protein stability index was found to be 2.37.

For YTAYIRRCACAASSDESPGSKCSP [S2T], the protein stability index stood at 2.1.

On to YYAYIRRCACAASSDESPGSKCSP [S2Y], for which the protein stability index is 1.92.

Consider YWAYIRRCACAASSDESPGSKCSP [S2W], for which the protein stability index came to 1.91.

As for YLAYIRRCACAASSDESPGSKCSP [S2L], the protein stability index is 2.

For YQAYIRRCACAASSDESPGSKCSP [S2Q], the protein stability index was 2.02.

Consider YHAYIRRCACAASSDESPGSKCSP [S2H], for which the protein stability index is 4.15.

Consider YFAYIRRCACAASSDESPGSKCSP [S2F], for which the protein stability index came to 2.16.

Regarding YDAYIRRCACAASSDESPGSKCSP [S2D], the protein stability index came to 2.6.

As for YRAYIRRCACAASSDESPGSKCSP [S2R], the protein stability index came out at 1.82.

For YVAYIRRCACAASSDESPGSKCSP [S2V], the protein stability index came to 2.52.

YMAYIRRCACAASSDESPGSKCSP [S2M]: the protein stability index amounted to 1.91.
